According to paper PMC5880107, “The Sequence-specific Peptide-binding Activity of the Protein Sulfide Isomerase AGR2 Directs Its Stable Binding to the Oncogenic Receptor EpCAM*^([image sbox.jpg])” (Molecular & Cellular Proteomics : MCP, 2018):

B1: His-AGR2 WT (mature AGR2, amino acids 21-175, N-terminal 6xHis tag; plasmid pmAGR2) [human] / His-EpEX-CO, extracellular domain of EpCAM (amino acids 24-265), N-terminal 6xHis tag [human] (parent)
chain 1: RDTTVKPGAKKDTKDSRPKLPQTLSRGWGDQLIWTQTYEEALYKSKTSSKPLMIIHHLDECPHSQALKKVFAENKEIQKLAEQFVLLNLVYETTDKHLSPDGQYVPRIMFVDPSLTVRADITGRYSNRLYAYEPADTALLLDNMKKALKLLKTEL
chain 2: QEECVCENYKLAVNCFVNNNRQCQCTSVGAQNTVICSKLAAKCLVMKAEMNGSKLGRRAKPEGALQNNDGLYDPDCDESGLFKAKQCNGTSMCWCVNTAGVRRTDKDTEITCSERVRTYWIIIELKHKAREKPYDSKSLRTALQKEITTRYQLDPKFITSILYENNVITIDLVQNSSQKTQNDVDIADVAYYFEKDVKGESLFHSKKMDLTVNGEQLDLDPGQTLIYYVDEKAPEFSMQGLK

Variants of: B1
Test: ELISA (His-EpCAM solid phase; His-AGR2 mobile phase)
Settings: with His-EpEX-CO, point at 0.5 μg AGR2 (highest dose of the titration), +DTT Blocking (DTT only in the blocking step, before AGR2 binding), read off a plot

| response [RLU] | Variant |
| --- | --- |
| 110 | chain 1 RDTTVKPGAKKDTKDSRPKLPQTLSRGWGDQLIWTQTYEEALYKSKTSSKPLMIIHHLDECPHSQALKKVFAENKEIQKLAEQFVLLNLVYETTDKHLSPDGQYVPRIMFVDPALTVRADITGRYSNRLYAYEPADTALLLDNMKKALKLLKTEL |

Same assay, conditions: with His-EpEX-CO, point at 0.5 μg AGR2 (highest dose of the titration), no DTT in the blocking step, read off a plot

| response [RLU] | Variant |
| --- | --- |
| 160 | chain 1 RDTTVKPGAKKDTKDSRPKLPQTLSRGWGDQLIWTQTYEEALYKSKTSSKPLMIIHHLDECPHSQALKKVFAENKEIQKLAEQFVLLNLVYETTDKHLSPDGQYVPRIMFVDPALTVRADITGRYSNRLYAYEPADTALLLDNMKKALKLLKTEL |
